Experimental data: patent EP2878677A1, “Activators of protein phosphatase 5” (Deutsches Zentrum für Neurodegenerative Erkrankungen e.V. …, priority 2013, dated 2015)

Target: PPH-5 (C. elegans protein phosphatase 5) (C. elegans)
Assay: competition in sedimentation velocity AUC; 60 uM peptide, 300 nM YFP-Hsp90, 3 uM PPH-5; the peptide competes with YFP-Hsp90

B1: C-terminal Hsp90/DAF-21 peptide (…) (peptide)
peptide: AEEDASRMEEVD
sedimentation coefficient (s20,w) of the YFP-Hsp90/PPH-5 complex in presence of the peptide: 7.6 S
